Where “and” joins values, the source holds several entries; their conditions need not be identical. Equal values may be shown once.

Experiment [1] addresses bacteriophage λN peptide fused to the N-terminus of β-EGFP (bacteriophage λ; Aequorea victoria) [GFP: P42212]. As to the kind of experiment: cell-based or functional assay.
Experiment [2] deals with β-fragment of EGFP (betaCys-fragment, 159-234 aa) biotinylated, tagged with streptavidin and a biotinylated 21-nt oligonucleotide (Aequorea victoria) [GFP: P42212]. Briefly: cell-based or functional assay.

As to “α-EGFP fused at its C-terminus to HTLV-1 Rex peptide (from UniProt P42212 1-158)”, in experiment [1], the average fluorescence over background (no RNA component), 0.01 mM IPTG was 10 fold and 15 fold; the signal/background ratio at reduced IPTG is 10 fold and 20 fold.
“α-fragment of EGFP (alphaCys-fragment, 1-158) biotinylated, tagged with streptavidin and a biotinylated 21-nt oligonucleotide (from UniProt P42212 1-158; P22629 37-163)”: the t½ of fluorescence increase upon mixing in experiment [2] worked out at 1.67 min.
